Experimental data as given in patent US20040018603.
“And” between values parts separate entries of the source, which are not always exact repeats. Identical values can stand only once.

Key:
[1] = target: GST-Cdc25[254-316]-WT (62-amino acid region of Xenopus Cdc25 fused to glutathione S-transferase)

B1: His6-Xcds1 (histidine-tagged Xcds1 purified from E. coli) (protein)
chain: MMSRDTKTESQQSQGTSSSSSSSAPQSYSQSSSSGTLSSLDTVPVQDLASIPEDPEIDEDIPQPWGRLWALGKGFLNHDCLHEEYVFGRDKKCDYTFDIPVLNQTDRYKTYSKRHFRIFQELGHGHSRVANIEDLSGNGTFVNKEIIGKGRTLPLTNNAEIALSLPTNKVFVFSDLSVDDQTIYPKDFIDKYIMSRPIGSGACGEVKLAFQKSVCKKVAVKIISKRKFKMNTSSNEHPISVDTEIEILKKLDHPCIIKIENFFDSEDFYYIVLELMEGGELFDRVVNSTRLREPIAKLYFYQMLLAVQYLHENGVIHRDLKPENVLLSSTSEECCIKITDFGQSKILGETSLMRTLCGTPTYLAPEVLNTAGTTGYSSAVDCWSLGVILFVCLCGYPPFSEQNSNIPLKNQIAEGKYTYIAAAWRNVSEQAFDLVKNLLVVDPEQRLTTKQALEHPWLQDDSMKHTVERLMYGVDHTMPPPIKKNIIRKRGHEWDQDASTSSCSEILPTSAEKRAKR
phosphorylation in kinase assay with 32P-ATP (SDS-PAGE, PhosphorImager) [1]: His6-Xcds1, but not a catalytically inactive mutant (His6-Xcds1-N324A), phosphorylated a 62-amino acid region of Xenopus Cdc25 fused to glutathione S-transferase (GST-Cdc25[254-316]-WT)
phosphorylation in kinase assay with 32P-ATP (SDS-PAGE, PhosphorImager) (GST-Cdc25[254-316]-S287A): a serine-to-alanine mutation at this position abolished the phosphorylation

B2: His6-Xcds1-N324A (catalytically inactive mutant) (protein)
chain: MMSRDTKTESQQSQGTSSSSSSSAPQSYSQSSSSGTLSSLDTVPVQDLASIPEDPEIDEDIPQPWGRLWALGKGFLNHDCLHEEYVFGRDKKCDYTFDIPVLNQTDRYKTYSKRHFRIFQELGHGHSRVANIEDLSGNGTFVNKEIIGKGRTLPLTNNAEIALSLPTNKVFVFSDLSVDDQTIYPKDFIDKYIMSRPIGSGACGEVKLAFQKSVCKKVAVKIISKRKFKMNTSSNEHPISVDTEIEILKKLDHPCIIKIENFFDSEDFYYIVLELMEGGELFDRVVNSTRLREPIAKLYFYQMLLAVQYLHENGVIHRDLKPEAVLLSSTSEECCIKITDFGQSKILGETSLMRTLCGTPTYLAPEVLNTAGTTGYSSAVDCWSLGVILFVCLCGYPPFSEQNSNIPLKNQIAEGKYTYIAAAWRNVSEQAFDLVKNLLVVDPEQRLTTKQALEHPWLQDDSMKHTVERLMYGVDHTMPPPIKKNIIRKRGHEWDQDASTSSCSEILPTSAEKRAKR
phosphorylation in kinase assay with 32P-ATP (SDS-PAGE, PhosphorImager) [1]: but not a catalytically inactive mutant (His6-Xcds1-N324A)

B3: Xenopus laevis protein kinase Cds1 (Xcds1), endogenous protein in Xenopus egg extracts (protein)
chain: MMSRDTKTESQQSQGTSSSSSSSAPQSYSQSSSSGTLSSLDTVPVQDLASIPEDPEIDEDIPQPWGRLWALGKGFLNHDCLHEEYVFGRDKKCDYTFDIPVLNQTDRYKTYSKRHFRIFQELGHGHSRVANIEDLSGNGTFVNKEIIGKGRTLPLTNNAEIALSLPTNKVFVFSDLSVDDQTIYPKDFIDKYIMSRPIGSGACGEVKLAFQKSVCKKVAVKIISKRKFKMNTSSNEHPISVDTEIEILKKLDHPCIIKIENFFDSEDFYYIVLELMEGGELFDRVVNSTRLREPIAKLYFYQMLLAVQYLHENGVIHRDLKPENVLLSSTSEECCIKITDFGQSKILGETSLMRTLCGTPTYLAPEVLNTAGTTGYSSAVDCWSLGVILFVCLCGYPPFSEQNSNIPLKNQIAEGKYTYIAAAWRNVSEQAFDLVKNLLVVDPEQRLTTKQALEHPWLQDDSMKHTVERLMYGVDHTMPPPIKKNIIRKRGHEWDQDASTSSCSEILPTSAEKRAKR
kinase activity of the immunoprecipitate [1]: endogenous Xcds1 immunoprecipitated from egg extracts phosphorylated this substrate well

B4: Hyperphosphorylated Xcds1 protein immunoprecipitated from egg extracts containing poly(dT)40 (protein)
chain: MMSRDTKTESQQSQGTSSSSSSSAPQSYSQSSSSGTLSSLDTVPVQDLASIPEDPEIDEDIPQPWGRLWALGKGFLNHDCLHEEYVFGRDKKCDYTFDIPVLNQTDRYKTYSKRHFRIFQELGHGHSRVANIEDLSGNGTFVNKEIIGKGRTLPLTNNAEIALSLPTNKVFVFSDLSVDDQTIYPKDFIDKYIMSRPIGSGACGEVKLAFQKSVCKKVAVKIISKRKFKMNTSSNEHPISVDTEIEILKKLDHPCIIKIENFFDSEDFYYIVLELMEGGELFDRVVNSTRLREPIAKLYFYQMLLAVQYLHENGVIHRDLKPENVLLSSTSEECCIKITDFGQSKILGETSLMRTLCGTPTYLAPEVLNTAGTTGYSSAVDCWSLGVILFVCLCGYPPFSEQNSNIPLKNQIAEGKYTYIAAAWRNVSEQAFDLVKNLLVVDPEQRLTTKQALEHPWLQDDSMKHTVERLMYGVDHTMPPPIKKNIIRKRGHEWDQDASTSSCSEILPTSAEKRAKR
kinase activity of the immunoprecipitate, increase over background [1]: 5 fold and 6 fold
